Consider seven sequences from the supplement of paper PMC5998384.

Series [1] deals with HeLa Kyoto. Nature of the series: solubility in G1/S (NP-40 vs SDS abundance) (log2 ratio); higher = more soluble. The conditions noted are these: cell cycle stage: G1/S.
Series [2] relates to HeLa Kyoto. Briefly: melting temperature (median over replicates), in situ; higher = more thermally stable.
Series [3] relates to HeLa Kyoto. Nature of the series: thermal stability score vs G1/S (z-score of summed log2 fold changes over temperatures); higher = more thermally stable than in G1/S.
Series [4] deals with HeLa Kyoto. Nature of the series: solubility change mitosis vs G1/S (difference of NP-40 vs SDS log2 ratios) (log2 ratio difference); higher = more soluble in mitosis.
Where [5] appears, read: cell cycle stage: early G1 (4.5 h after nocodazole release).
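For melting temperature (median over replicates), in situ in this document: HeLa Kyoto cells synchronized by double thymidine or nocodazole block, proteins quantified by TMT10plex mass spectrometry, three independent biological replicates.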
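For solubility change mitosis vs G1/S (difference of NP-40 vs SDS log2 ratios) in this document: synchronized HeLa Kyoto cells (double thymidine block for G1/S, nocodazole release for mitosis), protein amounts in NP-40 versus SDS lysates quantified by mass spectrometry, three biological replicates.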
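For solubility in G1/S (NP-40 vs SDS abundance) in this document: HeLa Kyoto cells arrested at G1/S by double thymidine block, proteins quantified by TMT10plex mass spectrometry in mild NP-40 versus SDS extracts, three biological replicates.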
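For thermal stability score vs G1/S (z-score of summed log2 fold changes over temperatures) in this document: synchronized HeLa Kyoto cells, proteins quantified by TMT10plex mass spectrometry, three biological replicates, mitosis taken 0.5 h after nocodazole release, G1/S directly after double thymidine block.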

Turning to “MADDQGCIEEQGVEDSANEDSVDAKPDRSSFVPSLFSKKKKNVTMRSIKTTRDRVPTYQYNMNFEKLGKCIIINNKNFDKVTGMGVRNGTDKDAEALFKCFRSLGFDVIVYNDCSCAKMQDLLKKASEEDHTNAACFACILLSHGEENVIYGKDGVTPIKDLTAHFRGDRCKTLLEKPKLFFIQACRGTELDDGIQADSGPINDTDANPRYKIPVEADFLFAYSTVPGYYSWRSPGRGSWFVQALCSILEEHGKDLEIMQILTRVNDRVARHFESQSDDPHFHEKKQIPCVVSMLTKELYFSQ [CASP7]”, the “solubility in G1/S (log2)” value in the series on HeLa Kyoto [1] turned out to be 0.0897. For the same sequence, the melting temperature was 53.9 °C in the series on HeLa Kyoto [2] (cell cycle stage: G1/S) and 54.2 °C in the series with HeLa Kyoto [2] (cell cycle stage: mitosis). In addition, the figures for the thermal stability score in the series on HeLa Kyoto [3] (setting [5]) and in the series with HeLa Kyoto [3] (cell cycle stage: mitosis) were -0.531 and -2.43, respectively. Moreover, the “solubility change mitosis (log2)” value in the series on HeLa Kyoto [4] worked out at 0.00474.
For the sequence “MDPARKAGAQAMIWTAGWLLLLLLRGGAQALECYSCVQKADDGCSPNKMKTVKCAPGVDVCTEAVGAVETIHGQFSLAVRGCGSGLPGKNDRGLDLHGLLAFIQLQQCAQDRCNAKLNLTSRALDPAGNESAYPPNGVECYSCVGLSREACQGTSPPVVSCYNASDHVYKGCFDGNVTLTAANVTVSLPVRGCVQDEFCTRDGVTGPGFTLSGSCCQGSRCNSDLRNKTYFSPRIPPLVRLPPPEPTTVASTTSVTTSTSAPVRPTSTTKPMPAPTSQTPRQGVEHEASRDEEPRLTGGAAGHQDRSNSGQYPAKGGPQQPHNKGCVAPTAGLAALLLAVAAGVLL [LYPD3]”, in the series on HeLa Kyoto [1], the “solubility in G1/S (log2)” value is -0.405. The melting temperature in the series on HeLa Kyoto [2] (cell cycle stage: G1/S) is 56.9 °C. Further, the values for the thermal stability score in the series with HeLa Kyoto [3] (setting [5]) and with HeLa Kyoto [3] (cell cycle stage: mitosis) were -2.56 and 3.5, respectively. In the series with HeLa Kyoto [4], the “solubility change mitosis (log2)” value was -0.185.
Regarding “MQNYKYDKAIVPESKNGGSPALNNNPRRSGSKRVLLICLDLFCLFMAGLPFLIIETSTIKPYHRGFYCNDESIKYPLKTGETINDAVLCAVGIVIAILAIITGEFYRIYYLKKSRSTIQNPYVAALYKQVGCFLFGCAISQSFTDIAKVSIGRLRPHFLSVCNPDFSQINCSEGYIQNYRCRGDDSKVQEARKSFFSGHASFSMYTMLYLVLYLQARFTWRGARLLRPLLQFTLIMMAFYTGLSRVSDHKHHPSDVLAGFAQGALVACCIVFFVSDLFKTKTTLSLPAPAIRKEILSPVDIIDRNNHHNMM [PLPP3]”, in the series on HeLa Kyoto [1], the “solubility in G1/S (log2)” value was -0.0783. Also, the melting temperature with HeLa Kyoto [2] (cell cycle stage: G1/S) is 57 °C; in the series on HeLa Kyoto [2] (cell cycle stage: mitosis), 55.7 °C. Also, the results for the thermal stability score with HeLa Kyoto [3] (setting [5]) and in the series on HeLa Kyoto [3] (cell cycle stage: mitosis) were -1.69 and 5.11, respectively. Besides, the “solubility change mitosis (log2)” value in the series with HeLa Kyoto [4] is -0.139.
For the sequence “MSGTSSHESFYDSLSDMQEESKNTDFFPGLSAFLSQEEINKSLDLARRAIADSETEDFDSEKEISQIFSTSPASLCEHPSHKETKLGEHASRRPQDNRSTPVQPLAEKQTKSISSPVSKRKPAMSPLLTRPSYIRSLRKAEKRGAKTPSTNVKPKTPHQRKGGPQSQLCDKAANLIEELTSIFKAAKPRNRSPNGESSSPDSGYLSPKNQPSALLSASASQSPMEDQGEMEREVKSPGARHCYQDNQDLAVPHNRKSHPQPHSALHFPAAPRFIQKLRSQEVAEGSRVYLECRVTGNPTPRVRWFCEGKELHNTPDIQIHCEGGDLHTLIIAEAFEDDTGRYTCLATNPSGSDTTSAEVFIEGASSTDSDSESLAFKSRAGAMPQAQKKTTSVSLTIGSSSPKTGVTTAVIQPLSVPVQQVHSPTSYLCRPDGTTTAYFPPVFTKELQNTAVAEGQVVVLECRVRGAPPLQVQWFRQGSEIQDSPDFRILQKKPRSTAEPEEICTLVIAETFPEDAGIFTCSARNDYGSATSTAQLVVTSANTENCSYESMGESNNDHFQHFPPPPPILETSSLELASKKPSEIQQVNNPELGLSRAALQMQFNAAERETNGVHPSRGVNGLINGKANSNKSLPTPAVLLSPTKEPPPLLAKPKLDPLKLQQLQNQIRLEQEAGARQPPPAPRSAPPSPPFPPPPAFPELAACTPPASPEPMSALASRSAPAMQSSGSFNYARPKQFIAAQNLGPASGHGTPASSPSSSSLPSPMSPTPRQFGRAPVPPFAQPFGAEPEAPWGSSSPSPPPPPPPVFSPTAAFPVPDVFPLPPPPPPLPSPGQASHCSSPATRFGHSQTPAAFLSALLPSQPPPAAVNALGLPKGVTPAGFPKKASRTARIASDEEIQGTKDAVIQDLERKLRFKEDLLNNGQPRLTYEERMARRLLGADSATVFNIQEPEEETANQEYKVSSCEQRLISEIEYRLERSPVDESGDEVQYGDVPVENGMAPFFEMKLKHYKIFEGMPVTFTCRVAGNPKPKIYWFKDGKQISPKSDHYTIQRDLDGTCSLHTTASTLDDDGNYTIMAANPQGRISCTGRLMVQAVNQRGRSPRSPSGHPHVRRPRSRSRDSGDENEPIQERFFRPHFLQAPGDLTVQEGKLCRMDCKVSGLPTPDLSWQLDGKPVRPDSAHKMLVRENGVHSLIIEPVTSRDAGIYTCIATNRAGQNSFSLELVVAAKEAHKPPVFIEKLQNTGVADGYPVRLECRVLGVPPPQIFWKKENESLTHSTDRVSMHQDNHGYICLLIQGATKEDAGWYTVSAKNEAGIVSCTARLDVYTQWHQQSQSTKPKKVRPSASRYAALSDQGLDIKAAFQPEANPSHLTLNTALVESEDL [PALLD]”, the “solubility in G1/S (log2)” value in the series on HeLa Kyoto [1] came out at 0.0775. For the same sequence, the figures for the melting temperature with HeLa Kyoto [2] (cell cycle stage: G1/S) and in the series with HeLa Kyoto [2] (cell cycle stage: mitosis) were 50 °C and 50.5 °C, respectively. Besides, the thermal stability score in the series with HeLa Kyoto [3] (setting [5]) was determined as 1.21; in the series with HeLa Kyoto [3] (cell cycle stage: mitosis) it was 3.53. In the series with HeLa Kyoto [4], the “solubility change mitosis (log2)” value is -0.0539.
Turning to “MQANGAGGGGGGGGGGGGGGGGGGGQGQTPELACLSAQNGESSPSSSSSAGDLAHANGLLPSAPSAASNNSNSLNVNNGVPGGAAAASSATVAAASATTAASSSLATPELGSSLKKKKRLSQSDEDVIRLIGQHLNGLGLNQTVDLLMQESGCRLEHPSATKFRNHVMEGDWDKAENDLNELKPLVHSPHAIVVRGALEISQTLLGIIVRMKFLLLQQKYLEYLEDGKVLEALQVLRCELTPLKYNTERIHVLSGYLMCSHAEDLRAKAEWEGKGTASRSKLLDKLQTYLPPSVMLPPRRLQTLLRQAVELQRDRCLYHNTKLDNNLDSVSLLIDHVCSRRQFPCYTQQILTEHCNEVWFCKFSNDGTKLATGSKDTTVIIWQVDPDTHLLKLLKTLEGHAYGVSYIAWSPDDNYLVACGPDDCSELWLWNVQTGELRTKMSQSHEDSLTSVAWNPDGKRFVTGGQRGQFYQCDLDGNLLDSWEGVRVQCLWCLSDGKTVLASDTHQRIRGYNFEDLTDRNIVQEDHPIMSFTISKNGRLALLNVATQGVHLWDLQDRVLVRKYQGVTQGFYTIHSCFGGHNEDFIASGSEDHKVYIWHKRSELPIAELTGHTRTVNCVSWNPQIPSMMASASDDGTVRIWGPAPFIDHQNIEEECSSMDS [WDR26]”, the “solubility in G1/S (log2)” value in the series with HeLa Kyoto [1] is -0.108. Further, the figures for the melting temperature with HeLa Kyoto [2] (cell cycle stage: G1/S) and with HeLa Kyoto [2] (cell cycle stage: mitosis) were 52.1 °C and 50.7 °C, respectively. Besides, the thermal stability score is 0.266 with HeLa Kyoto [3] (setting [5]) and 0.763 with HeLa Kyoto [3] (cell cycle stage: mitosis). In addition, the “solubility change mitosis (log2)” value with HeLa Kyoto [4] is -0.151.
Regarding “MTSKQAMSSNEQERLLCYNGEVLVFQLSKGNFADKEPTKTPILHVRRMVFDRGTKVFVQKSTGFFTIKEENSHLKIMCCNCVSDFRTGINLPYIVIEKNKKNNVFEYFLLILHSTNKFEMRLSFKLGYEMKDGLRVLNGPLILWRHVKAFFFISSQTGKVVSVSGNFSSIQWAGEIENLGMVLLGLKECCLSEEECTQEPSKSDYAIWNTKFCVYSLESQEVLSDIYIIPPAYSSVVTYVHICATEIIKNQLRISLIALTRKNQLISFQNGTPKNVCQLPFGDPCAVQLMDSGGGNLFFVVSFISNNACAVWKESFQVAAKWEKLSLVLIDDFIGSGTEQVLLLFKDSLNSDCLTSFKITDLGKINYSSEPSDCNEDDLFEDKQENRYLVVPPLETGLKVCFSSFRELRQHLLLKEKIISKSYKALINLVQGKDDNTSSAEEKECLVPLCGEEENSVHILDEKLSDNFQDSEQLVEKIWYRVIDDSLVVGVKTTSSLKLSLNDVTLSLLMDQAHDSRFRLLKCQNRVIKLSTNPFPAPYLMPCEIGLEAKRVTLTPDSKKEESFVCEHPSKKECVQIITAVTSLSPLLTFSKFCCTVLLQIMERESGNCPKDRYVVCGRVFLSLEDLSTGKYLLTFPKKKPIEHMEDLFALLAAFHKSCFQITSPGYALNSMKVWLLEHMKCEIIKEFPEVYFCERPGSFYGTLFTWKQRTPFEGILIIYSRNQTVMFQCLHNLIRILPINCFLKNLKSGSENFLIDNMAFTLEKELVTLSSLSSAIAKHESNFMQRCEVSKGKSSVVAAALSDRRENIHPYRKELQREKKKMLQTNLKVSGALYREITLKVAEVQLKSDFAAQKLSNL [FANCB]”, in the series on HeLa Kyoto [1], the “solubility in G1/S (log2)” value is -0.208. The melting temperature in the series on HeLa Kyoto [2] (cell cycle stage: G1/S) was found to be 53.7 °C; in the series on HeLa Kyoto [2] (cell cycle stage: mitosis), 53.8 °C. Also, the results for the thermal stability score in the series on HeLa Kyoto [3] (setting [5]) and with HeLa Kyoto [3] (cell cycle stage: mitosis) were 1.37 and 0.274, respectively. Also, the “solubility change mitosis (log2)” value in the series with HeLa Kyoto [4] is -0.0928.
Take “MSRSVLQPSQQKLAEKLTILNDRGVGMLTRLYNIKKACGDPKAKPSYLIDKNLESAVKFIVRKFPAVETRNNNQQLAQLQKEKSEILKNLALYYFTFVDVMEFKDHVCELLNTIDVCQVFFDITVNFDLTKNYLDLIITYTTLMILLSRIEERKAIIGLYNYAHEMTHGASDREYPRLGQMIVDYENPLKKMMEEFVPHSKSLSDALISLQMVYPRRNLSADQWRNAQLLSLISAPSTMLNPAQSDTMPCEYLSLDAMEKWIIFGFILCHGILNTDATALNLWKLALQSSSCLSLFRDEVFHIHKAAEDLFVNIRGYNKRINDIRECKEAAVSHAGSMHRERRKFLRSALKELATVLSDQPGLLGPKALFVFMALSFARDEIIWLLRHADNMPKKSADDFIDKHIAELIFYMEELRAHVRKYGPVMQRYYVQYLSGFDAVVLNELVQNLSVCPEDESIIMSSFVNTMTSLSVKQVEDGEVFDFRGMRLDWFRLQAYTSVSKASLGLADHRELGKMMNTIIFHTKMVDSLVEMLVETSDLSIFCFYSRAFEKMFQQCLELPSQSRYSIAFPLLCTHFMSCTHELCPEERHHIGDRSLSLCNMFLDEMAKQARNLITDICTEQCTLSDQLLPKHCAKTISQAVNKKSKKQTGKKGEPEREKPGVESMRKNRLVVTNLDKLHTALSELCFSINYVPNMVVWEHTFTPREYLTSHLEIRFTKSIVGMTMYNQATQEIAKPSELLTSVRAYMTVLQSIENYVQIDITRVFNNVLLQQTQHLDSHGEPTITSLYTNWYLETLLRQVSNGHIAYFPAMKAFVNLPTENELTFNAEEYSDISEMRSLSELLGPYGMKFLSESLMWHISSQVAELKKLVVENVDVLTQMRTSFDKPDQMAALFKRLSSVDSVLKRMTIIGVILSFRSLAQEALRDVLSYHIPFLVSSIEDFKDHIPRETDMKVAMNVYELSSAAGLPCEIDPALVVALSSQKSENISPEEEYKIACLLMVFVAVSLPTLASNVMSQYSPAIEGHCNNIHCLAKAINQIAAALFTIHKGSIEDRLKEFLALASSSLLKIGQETDKTTTRNRESVYLLLDMIVQESPFLTMDLLESCFPYVLLRNAYHAVYKQSVTSSA [NCKAP1]”: in the series on HeLa Kyoto [1], the “solubility in G1/S (log2)” value is -0.214. Moreover, the melting temperature worked out at 51.5 °C in the series on HeLa Kyoto [2] (cell cycle stage: G1/S) and 51.1 °C in the series with HeLa Kyoto [2] (cell cycle stage: mitosis). For the same sequence, the values for the thermal stability score in the series on HeLa Kyoto [3] (setting [5]) and in the series with HeLa Kyoto [3] (cell cycle stage: mitosis) were -0.278 and -0.186, respectively. The “solubility change mitosis (log2)” value with HeLa Kyoto [4] was -0.159.
